Data on one substance can be found in publication PMC6322584.

The assay deals with VvWRKY8-mVenus (Vitis vinifera). The assay is described as follows: FRET or BRET; FRET with acceptor photobleaching; VvMYB14-mTRQ2 (donor) and VvWRKY8-mVenus (acceptor) from one pFRETtv-2in1-NN vector in agro-infiltrated tobacco leaves, 3 d after infiltration; bleaching with the 488-nm laser at 100% intensity, 15 frames. A general note: In BRET a luciferase serves as donor, and the signal depends on an acceptor being close.

On to VvMYB14-mTRQ2 (natural protein), for which the FRET efficiency was found to be 38.5%.
